Literature values in PMC8403128.
Like-named read-outs stand apart in the source and are kept apart here.

Key:
[1] = biological target: Low-density lipoprotein receptor-related protein 1 (Homo sapiens) (UniProt Q07954)
[2] = biological target: Low-density lipoprotein receptor-related protein 1 (Homo sapiens) (UniProt Q07954); remark: listed apart in the source

UniProt Q07954, sequence (Q07954 4441-4544): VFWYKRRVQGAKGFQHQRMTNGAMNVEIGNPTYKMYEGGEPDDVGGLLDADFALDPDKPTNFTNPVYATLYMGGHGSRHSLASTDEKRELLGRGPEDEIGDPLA

Substance	Kd [1] [nM]	Kd [2] [nM]
Matrix metalloproteinase-1 (from UniProt P03956)	> 1000	–
Matrix metalloproteinase-3 (from UniProt P08254)	–	> 1000
